Measured values from publication PMC3536650.
Each block holds one substance with its values, some of them ahead of it.

Legend:
Experiment in all cases: cross-linking; engineered disulfide bridge in purified EF1; overnight with 400 µM DTNB (oxidised), 10 mM DTT (reduced), 30 mM DTT (re-reduced); SDS-PAGE with non-oxidizing sample buffer, Coomassie; yield from the change of the γ-band, oxidized against reduced; immunoblots against α and γ
[1] = target: E. coli F1-ATPase subunit α with αP281C, in the cysteine-free EF1 mutant FH4 (Escherichia coli) (UniProt P0ABB0)
[2] = target: E. coli F1-ATPase subunit α with αP280C, in the cysteine-free EF1 mutant GH54 (Escherichia coli) (UniProt P0ABB0)
[3] = target: E. coli F1-ATPase subunit α with αE284C, in the cysteine-free EF1 mutant GH19 (Escherichia coli) (UniProt P0ABB0)

- cross-link yield [1]: 85%
Substance: E. coli F1-ATPase subunit γ with γK109C and γI279C, in the cysteine-free EF1 mutant FH4 (natural protein)

- cross-link yield [2]: 90%
Substance: E. coli F1-ATPase subunit γ with γK109C, γA213C and γG282C, in the cysteine-free EF1 mutant GH54 (natural protein)

- cross-link yield [3]: > 95%
Substance: E. coli F1-ATPase subunit γ with γK109C, γA213C and γL276C, in the cysteine-free EF1 mutant GH19 (natural protein)
